The term Kd denotes the equilibrium constant for the complex coming apart. High values mean lower affinity, low ones higher affinity. The term t½ denotes the time in which the quantity being followed falls by half. Read a high t½ as slow decline.

Changes are numbered by the printed parent chain. Names and notes keep the numbering of the source.

To fix the notation:
T1: His9-mMSR1 (mouse MSR1 extracellular domain) (Mus musculus, UniProt P30204)
T1 construct: mouse MSR1 extracellular domain expressed with a N-terminal nonahistidine tag; His9 (nonahistidine) (N); purchased R&D Systems 1797-MS
T1 sequence (P30204 79-458 limits assumed): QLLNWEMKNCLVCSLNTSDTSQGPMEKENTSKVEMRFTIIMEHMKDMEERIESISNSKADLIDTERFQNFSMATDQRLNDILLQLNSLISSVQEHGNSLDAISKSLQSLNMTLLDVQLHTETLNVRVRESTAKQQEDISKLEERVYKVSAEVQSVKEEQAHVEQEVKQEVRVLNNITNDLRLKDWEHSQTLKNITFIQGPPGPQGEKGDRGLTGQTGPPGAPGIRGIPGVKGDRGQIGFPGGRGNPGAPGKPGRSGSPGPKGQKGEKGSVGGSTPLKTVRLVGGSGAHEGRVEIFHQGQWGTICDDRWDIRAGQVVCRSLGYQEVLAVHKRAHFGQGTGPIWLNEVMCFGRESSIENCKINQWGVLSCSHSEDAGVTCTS

T2: Ac-LDL binding to His9-hMSR1 (Homo sapiens, UniProt P21757)
T2 construct: human MSR1 extracellular domain expressed with a N-terminal nonahistidine tag; His9 (nonahistidine) (N); purchased R&D Systems 2708-MS
T2 sequence (P21757 77-451 limits assumed): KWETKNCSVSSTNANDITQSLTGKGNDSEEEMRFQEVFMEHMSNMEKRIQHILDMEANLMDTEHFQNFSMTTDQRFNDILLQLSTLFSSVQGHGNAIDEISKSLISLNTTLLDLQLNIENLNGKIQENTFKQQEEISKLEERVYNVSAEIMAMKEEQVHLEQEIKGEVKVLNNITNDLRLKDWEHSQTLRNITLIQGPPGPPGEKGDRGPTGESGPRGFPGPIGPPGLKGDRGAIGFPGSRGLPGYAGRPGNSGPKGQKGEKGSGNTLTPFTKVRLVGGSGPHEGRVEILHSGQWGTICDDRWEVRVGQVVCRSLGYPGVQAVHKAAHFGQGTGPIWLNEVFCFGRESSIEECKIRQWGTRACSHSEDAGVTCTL

B1: H1H21227N-N297Q: "modified versions of 21227N (H1H21227N-N297Q and H1H21227N-N297D)"; anti-MSR1 antibody "with a N297Q single point mutation" (antibody, V domains shown)
VH: QVQLVQSGAEVKKPGASVKVSCKVSGYTLTELSIHWVRQVPGKGLEWMGGFDPEEGETIFAQEFRDRVTLTEDTSPDTAYMELSSLKSEDAAVYYCTTPRYCNNGICYDYWGQGTLVTVSS
VL: DIQMTQSPSSLSASVGDRVTITCRASQSISNYLNWYQQKPGKAPKLLIYTASSLQSGVPSRFSGSGSGTDFTLTISSLQTEDFATYYCQQSYSNFPITFGQGTRLEIKR
B2: H1H21227N-N297D: "The 21227N antibody was also produced as a third version with a N297D mutation" (antibody, V domains shown)
VH: B1 VH
VL: B1 VL
B3: H1H21227N: "anti-MSR1 antibodies ... (21227N, 21231N, 21234N) were produced with the original human Fcγ portion"; "H1H" = human IgG1 Fc (antibody, V domains shown)
VH: B1 VH
VL: B1 VL
modifications: human IgG1 Fc
notes: "anti-MSR1 antibodies ; (21227N, 21231N, 21234N) were produced with the original human Fcγ portion"; "H1H" = human IgG1 Fc
B4: H1H21231N-N297Q: modified version of "21231N (H1H21231N-N297Q) anti-MSR1 antibodies" with "a N297Q single point mutation" (antibody, V domains shown)
VH: EVQLVESGGGLVQPGGSLRLSCAASGFTFSDHYMDWVRQAPGKGLEWVGRTRNKANSHTTEYTASVTGRFTISRDDSRNSLYLQMNSLKTEDTAVYYCVRAGIIGTLFDYWGQGTLVTVSS
VL: B1 VL with S7F, N31S, Y32F, Y36F, L46F, T50A, T80P, N94S, F95P
B5: H1H21231N: "anti-MSR1 antibodies ... (21227N, 21231N, 21234N) were produced with the original human Fcγ portion"; "H1H" = human IgG1 Fc (antibody, V domains shown)
VH: B4 VH
VL: B1 VL with S7F, N31S, Y32F, Y36F, L46F, T50A, T80P, N94S, F95P
modifications: human IgG1 Fc
notes: as for B3
B6: H1H21234N-N297Q-LP13 (conjugate)
VH: QVQLQESGPGLVKPSETLSLTCTVTGGSISRNYWSWIRQPPGKGLEWIGYIYYSGSIDYNPSLKSRVTISVDTSKNQFSLKLSSMTAADTAVYYCARDRWNWKYGMDVWGQGTTVIVSS
VL: EIVLTQSPGTLSLSPGERATLSCRASQTVRNNYLAWYHQKPGQAPRLLIYGASSRATGIPDRFSGSGSGTDFTLTISRLEPEDFTVYYCHQYGNSPWTFGQGTKMEIKR

The first test deals with T1, His9-mMSR1 (mouse MSR1 extracellular domain). The experiment in a line: OCTET bio-layer interferometry binding kinetics of anti-MSR1 mAbs. The note with it: 25° C., antibody-capture format, analyte His9-mMSR1. As to the method: Binding affinities and kinetic constants of human anti-MSR1 antibodies for different MSR1 reagents were determined using a real time, label-free bio-layer interferometry assay on an OCTET® HTX biosensor platform (Pall FortéBio Corp., Menlo Park, CA). The experiment was performed at 25° C. in 10 mM HEPES, 150 mM NaCl, 3 mM EDTA, 0.05% v/v Surfactant Tween-20, and 1 mg/mL BSA, pH7.4 (HBS-EBT) buffer with the plate shaking at the speed of 1000 rpm. Binding studies were performed on human MSR1 extracellular domain expressed with a N-terminal nonahistidine tag (His9-hMSR1; R&D Systems, Cat #2708-MS), monkey MSR1 extracellular domain expressed with a N-terminal myc-myc-hexahistidine tag (HMM-mfMSR1; SEQ ID NO: 418), and mouse MSR1 extracellular domain expressed with a N-terminal nonahistidine tag (His9-mMSR1; R&D Systems, Cat #1797-MS). The anti-MSR1 monoclonal antibodies were captured by dipping either anti-human Fc (AHC) or anti-mouse Fc (AMC) Octet biosensors in wells containing 5 μg/mL or 10 μg/mL of anti-MSR1 monoclonal antibody for 45-90 seconds. The AHC captured anti-MSR1 monoclonal antibodies were then dipped in wells containing 50 nM of His9-mMSR1, while the AMC captured anti-MSR1 monoclonal antibodies were dipped in wells containing different concentrations of His9-hMSR1 or HMM-mfMSR1 (100 nM, 25 nM) or 100 nM His9-mMSR1. The binding of different MSR1 reagents to the captured anti-MSR1 monoclonal antibody was measured for 4 minutes and the dissociation of monoclonal antibody bound MSR1 reagent was monitored for 8-10 minutes in HBS-EBT buffer.
The association rate (ka) and dissociation rate (kd) were determined by fitting the real-time binding sensorgrams to a 1:1 binding model with mass transport limitation using Scrubber 2.0c curve-fitting software. Binding dissociation equilibrium constant (KD) and dissociative half-life (t½) were calculated from the kinetic rates as: […]
Binding kinetics parameters for His9-hMSR1, HMM-mfMSR1 or His9-mMSR1 binding to different anti-MSR1 monoclonal antibodies of the invention at 25° C. are shown in Tables 8 and 9.
B1: binding was characterised by a dissociation constant (Kd) of 1.89 nM and the ka worked out at 374000 M⁻¹ s⁻¹.

With B2, the affinity, expressed as Kd, was 1.71 nM and the ka was 461000 M⁻¹ s⁻¹.

As to B3, the Kd is 1.97 nM and the ka came out at 415000 M⁻¹ s⁻¹.

The same test, now with this note: 25° C., antibody-capture format, analyte His9-mMSR1; * = no dissociation observed, kd manually fixed at 5.00E−05.
Take B1: the kd stood at 0.000708 s⁻¹.

In the case of B2, the kd worked out at 0.000786 s⁻¹.

B3 gave a kd of 0.000816 s⁻¹.

Staying with this test, now noted: 25° C., antibody-capture format, analyte His9-mMSR1; dissociative half-life.
B1 showed a t½ of 16 min.

As for B2, the t½ came out at 15 min.

B3 yielded a t½ of 14 min.

The target of a further test is T2, Ac-LDL binding to His9-hMSR1. The experiment in a line: Competition sandwich ELISA, blocking of Ac-LDL binding. The conditions noted are these: 50 pM Ac-LDL. The protocol: The ability of anti-MSR1 antibodies disclosed herein to block the binding of various ligands to human MSR1 was measured using three competition sandwich ELISA assays. The ligands used in the assays were: (1) acetylated LDL (Ac-LDL), (2) oxidized LDL (Ox-LDL), and (3) advanced glycation end-products of bovine serum albumin (AGE-BSA).
Anti-MSR1 antibodies or isotype control antibodies were serially diluted as appropriate for each tested ligand and added in duplicate for each serial dilution set to microtiter plates coated with His9-hMSR1. Buffer alone was also added to wells on each coat. […] This assay was conducted in four different assay runs.
Data analysis was performed using a sigmoidal dose-response model within Prism™ software (GraphPad). Percent blockade at maximum concentration of the antibody tested in each assay was calculated as an indicator of the ability of the antibodies to block the binding of Ac-LDL, Ox-LDL or biot-AGE-BSA to His9-hMSR1 on the plate relative to the baseline of the assay. In the calculation, binding signal of the same concentrations of Ac-LDL, Ox-LDL, or biot-AGE-BSA used for the assays in the absence of antibody was referenced as 100% binding or 0% blocking, while the baseline of the assay, defined as binding signal of the sample of buffer without MSR1 ligands or antibody, was referenced as 0% binding or 100% blocking. The maximum percent blockade at the highest concentration of antibody tested in each assay are reported for all antibodies.
In general terms: An ELISA detects its analyte on a solid surface through an enzyme-linked reagent.
For B1, the “Anti-MSR1 antibody (100 nM) blocking of Ac-LDL binding to His9-hMSR1 % Blocking” value (shortened to “Anti-MSR1 antibody … to His9-hMSR1 % Blocking”) was 105%.

For the molecule B4, the “Anti-MSR1 antibody … to His9-hMSR1 % Blocking” value is reported as −60%.

Consider B5, for which the “Anti-MSR1 antibody … to His9-hMSR1 % Blocking” value is −62%.

With B2, the “Anti-MSR1 antibody … to His9-hMSR1 % Blocking” value turned out to be 101%.

Turning to B3, the “Anti-MSR1 antibody … to His9-hMSR1 % Blocking” value stood at 105%.

The test system of the next test is Msr1^hu/hu ApoE^−/− mice. The experiment in a line: In vivo LPS-induced cytokine production in serum. Details: species or system mouse. The conditions noted are these: i.p. dosing 24 hours before LPS challenge; 2 hours post LPS challenge.
Consider B6, for which the “effect on in vivo LPS-induced cytokine production in serum” value is “efficacious in inhibiting in vivo LPS-induced cytokine production in a dose-dependent manner”.
